The text below walks through data of paper doi:10.1101/438903.

This experiment concerns the target DY-547P1 labelled NDC80-C Bonsai (ΔHec1 1-80). The experiment is described as follows: MST.

B1: MPS1^WT (1xNTE, residues 1-808), recombinant from insect cells (enzyme)
chain: MESEDLSGRELTIDSIMNKVRDIKNKFKNEDLTDELSLNKISADTTDNSGTVNQIMMMANNPEDWLSLLLKLEKNSVPLSDALLNKLIGRYSQAIEALPPDKYGQNESFARIQVRFAELKAIQEPDDARDYFQMARANCKKFAFVHISFAQFELSQGNVKKSKQLLQKAVERGAVPLEMLEIALRNLNLQKKQLLSEEEKKNLSASTVLTAQESFSGSLGHLQNRNNSCDSRGQTTKARFLYGENMPPQDAEIGYRNSLRQTNKTKQSCPFGRVPVNLLNSPDCDVKTDDSVVPCFMKRQTSRSECRDLVVPGSKPSGNDSCELRNLKSVQNSHFKEPLVSDEKSSELIITDSITLKNKTESSLLAKLEETKEYQEPEVPESNQKQWQSKRKSECINQNPAASSNHWQIPELARKVNTEQKHTTFEQPVFSVSKQSPPISTSKWFDPKSICKTPSSNTLDDYMSCFRTPVVKNDFPPACQLSTPYGQPACFQQQQHQILATPLQNLQVLASSSANECISVKGRIYSILKQIGSGGSSKVFQVLNEKKQIYAIKYVNLEEADNQTLDSYRNEIAYLNKLQQHSDKIIRLYDYEITDQYIYMVMECGNIDLNSWLKKKKSIDPWERKSYWKNMLEAVHTIHQHGIVHSDLKPANFLIVDGMLKLIDFGIANQMQPDTTSVVKDSQVGTVNYMPPEAIKDMSSSRENGKSKSKISPKSDVWSLGCILYYMTYGKTPFQQIINQISKLHAIIDPNHEIEFPDIPEKDLQDVLKCCLKRDPKQRISIPELLAHPYVQIQTHPVNQMAKGTTEE
With B1, the Kd was found to be 300 nM.

One may read the Kd as the concentration at which binding is half-saturated.
